In the RNAGym collection of RNA variant scans (doi:10.7554/elife.80360):

B1: HDV Ribozyme (parent)
chain: GGCCGGCAUGGUCCCAGCCUCCUCGCUGGCGCCGGCUGGGCAACAUUCCGAGGGGACCGUCCCCUCGGUAAUGGCGAAUGGGACCCA

Variants of: B1
Assay: self-cleavage, relative activity (ratio to wild type); higher = more cleavage; co-transcriptional

In order of falling self-cleavage:
1. U27G C85G  1.29
2. C64A C84A  1.15
3. C26U C64G  1.1
4. C62U U65A  1.08
5. C26U A78G  1.07
6. G59C A70U  1.03
7. C61G C86A  1.03
8. G10C C86U  1.03
9. G40A C57G  1.02
10. A8G G53U  1.02
11. G55U G68U  1
12. G52C C86G  0.997
13. U65C G67C  0.984
14. U9C U69C  0.969
15. A56U A71C  0.966
16. U9A G76A  0.955
17. C3U U9C  0.95
18. U12G G55C  0.95
19. C26U G39U  0.936
20. G40A G67U  0.919
21. C26G G76C  0.884
22. C3U C85G  0.87
23. C61U U65G  0.864
24. U60C C86A  0.831
25. U37C U46G  0.787
26. G6U C32U  0.787
27. A42G G76U  0.782
28. C7A G55C  0.778
29. C24A G76A  0.769
30. C26G C63U  0.743
31. U46C C61G  0.734
32. G40U A51G  0.717
33. U46A G55A  0.716
34. G53C C84U  0.712
35. C15U U79G  0.703
36. C7U C15U  0.674
37. C44U C62A  0.665
38. G53U G74A  0.646
39. U65A A77G  0.643
40. C15G C26U  0.623
41. U12C A56G  0.623
42. C15A C85A  0.623
43. C7A U9C  0.604
44. C36U G40U  0.602
45. C64G G73A  0.594
46. G6U A87U  0.591
47. A42G C66U  0.591
48. G17A C58U  0.588
49. C15G A51G  0.587
50. C13U G67A  0.572
51. C7A C86G  0.571
52. C44G U47C  0.554
53. A70C A83G  0.543
54. C14A A56C  0.539
55. C14G U60G  0.511
56. U46C A51C  0.504
57. A43C  0.498
58. G67C A78G  0.492
59. U27C G55U  0.426
60. G5U A70C  0.415
61. G10C A43U  0.415
62. C3A A16G  0.401
63. A42C G50U  0.386
64. U27A G31C  0.378
65. C44G C84G  0.375
66. G31A U37C  0.366
67. C61G U72G  0.332
68. U12C G50U  0.332
69. U27C U46G  0.332
70. G10U C24A  0.328
71. G25A A56C  0.325
72. A43C G59C  0.322
73. G25A C49U  0.318
74. C58G G82C  0.302
75. C21U C48A  0.302
76. C57A G82C  0.298
77. U9A G17C  0.297
78. A16C C44A  0.289
79. U65A A77C  0.277
80. G5A G73C  0.268
81. G5U U69A  0.262
82. A43U G74A  0.261
83. C22A C84U  0.256
84. C36G C66G  0.237
85. C22A A45U  0.233
86. U37G G67C  0.229
87. G25A U72C  0.227
88. G29A C32U  0.218
89. A42C C64A  0.212
90. C32A C58A  0.208
91. G11U U37C  0.208
92. C75U A77C  0.208
93. G2A U9G  0.192
94. C33G C61G  0.19
95. G38U G40U  0.19
96. C36A G38U  0.189
97. C7G A83C  0.175
98. G38U U60A  0.175
99. C4A G53U  0.174
100. C7A U12C  0.172
101. C15U U20G  0.166
102. C24U G82C  0.163
103. G10A C22U  0.157
104. U9A U20G  0.151
105. G5C G35C  0.147
106. C19U A45U  0.136
107. U9C G40C  0.135
108. G11U U23G  0.134
109. G25C C86A  0.128
110. U9C C18A  0.128
111. U20C C61G  0.128
112. C13U G73A  0.128
113. G28U C48A  0.125
114. G11A G74U  0.123
115. G34U A87G  0.122
116. G1A C24A  0.119
117. C32U C33G  0.117
118. C36A C48U  0.116
119. C75A A87U  0.111
120. C7U G35A  0.109
121. G6C G39U  0.108
122. G28A C33A  0.107
123. C21G G74C  0.104
124. U9G C33G  0.104
125. G2A C24U  0.101
126. C22U U37G  0.101
127. G11C U37G  0.101
128. C61G C75U  0.101
129. C19U G40A  0.0944
130. A45U G74C  0.0923
131. C44U G81C  0.0923
132. G34A G80U  0.0903
133. U20C A71U  0.0898
134. U47C A78C  0.0898
135. C4A C36G  0.0875
136. C13A A83G  0.086
137. C24G C49A  0.0804
138. C21A C26A  0.0739
139. C22G C32U  0.0707
140. G28C G74U  0.0692
141. C18U A77U  0.0678
142. C7G A71U  0.0639
143. C18A G40U  0.0631
144. U20C A77C  0.0615
145. G5A U47C  0.0615
146. G10A G38A  0.0607
147. G11C C36A  0.0536
148. A42U A77C  0.0519
149. U20A C75U  0.0489
150. G28A U79G  0.0489
151. G5C C7U  0.0462
152. G11C G25A  0.0449
153. C32G A71G  0.0415
154. C19A G59C  0.04
155. G31C G40C  0.0346
156. G28A G55C  0.0252
157. G2A U79A  0.0225
158. C19G A71U  0
159. C18G C36G  0
160. A8G G29C  0
161. C30G C44G  0
162. A16U G28C  0
163. G1A C57G  0
164. C4G A42G  0
165. G6C G29A  0
166. G5C G25C  0
167. U9C U20A  0
